A word on the stoichiometry N: it is the number of molecules, sites or subunits per partner or assembly. By Kd is commonly meant the equilibrium constant for the complex coming apart.

Numbering of substitutions follows the chain as printed. Names and notes keep the numbering of the source.

The source of these data is PMC4872217, “Structural and functional insights into the E3 ligase, RNF126” (Scientific Reports, 2016).

First the molecules themselves.
B1: BAG6_UBL (UBL domain of BAG6, residues 17-101) (domain or fragment, UniProt P46379 17-101, looked up)
chain: LEVLVKTLDSQTRTFIVGAQMNVKEFKEHIAASVSIPSEKQRLIYQGRVLQDDKKLQEYNVGGKVIHLVERAPPQTHLPSGASSG
notes: BAG6 (BCL2-associated athanogene 6), UBL domain, residues 17-101; The general purification protocol describes TEV cleavage; also called BAG6 UBL domain; source: E. coli BL21 (DE3), purified
B2: UBL4A_UBL (UBL domain of UBL4A, residues 1-74) (domain or fragment, UniProt P11441 1-74, looked up)
chain: MQLTVKALQGRECSLQVPEDELVSTLKQLVSEKLNVPVRQQRLLFKGKALADGKRLSDYSIGPNSKLNLVVKPL
notes: UBL4A (ubiquitin-like protein 4A), UBL domain, residues 1-74; source: E. coli Rosetta, purified
B3: RNF126_NZF (RNF126 N-terminal zinc finger domain, residues 1-40) (domain or fragment, human, UniProt Q9BV68 1-40, looked up)
chain: MAEASPHPGRYFCHCCSVEIVPRLPDYICPRCESGFIEEL
notes: RNF126, human, residues 1-40 (N-terminal zinc finger); 15N- or 15N,13C-labelled where it was the observed protein in NMR; Cultures were supplemented with 10 uM ZnCl2; also called RNF126 1-40; not shown: thioredoxin A, N-terminal, cleaved; His6, N-terminal, cleaved
B4: RNF126_NZF H14A mutant (domain or fragment, human, UniProt Q9BV68 1-40, looked up)
chain: B3 chain with H14A
notes: RNF126, human, residues 1-40, with H14A; Made by PCR mutagenesis on pET28-GFP-RNF126 (1-40); in the native PAGE the mutants were GFP tagged; also called His14/Ala; source: E. coli BL21 (DE3), purified
B5: RNF126_NZF F36A mutant (domain or fragment, human, UniProt Q9BV68 1-40, looked up)
chain: B3 chain with F36A
notes: RNF126, human, residues 1-40, with F36A; Made by PCR mutagenesis on pET28-GFP-RNF126 (1-40); in the native PAGE the mutants were GFP tagged; also called Phe36/Ala; source: E. coli BL21 (DE3), purified

For test [1], the target named is T1, SGTA_NT (N-terminal SGTA, residues 1-86) (human, UniProt O43765 1-86).
T1 construct: SGTA (small glutamine-rich tetratricopeptide repeat-containing protein alpha), human, residues 1-86; Only the 1-86 construct is described in the methods; not shown: thioredoxin A, N-terminal, cleaved; His6, N-terminal, cleaved
T1 sequence (O43765 1-86): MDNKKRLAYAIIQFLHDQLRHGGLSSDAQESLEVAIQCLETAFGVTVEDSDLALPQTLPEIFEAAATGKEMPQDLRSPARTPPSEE
Put plainly: NMR titration; unlabelled protein titrated into 15N-labelled protein, 1H-15N HSQC chemical shift perturbation; 25 °C; 10 mM potassium phosphate pH 6.0, 100 mM NaCl, 250 μM TCEP; for RNF126_NZF into UBL4A_UBL fitted with DynaFit to a 1:1 model. Particulars: both partners purified.

Test [2] has as its target T2, RNF126 N-terminal region (residues 1-100) (human, UniProt Q9BV68 1-100).
T2 construct: RNF126, human, residues 1-100; also called RNF126 1-100; RNF126_NT (1-100); not shown: thioredoxin A, N-terminal, cleaved; His6, N-terminal, cleaved
The description is as above. Particulars: both partners purified.

Test [3] concerns the target B3. The description is as above. Particulars: both partners purified.
The target of test [4] is UBL4A_UBL (UBL domain of UBL4A, residues 1-74) (UniProt P11441). The description is as above.
Test [5] concerns the target B1. The test can be described thus: ITC; 500 μM RNF126_NZF (wild-type or mutant) injected into 50 μM BAG6_UBL in the cell; 25 °C; 10 mM potassium phosphate pH 6.0, 100 mM NaCl, 250 μM TCEP. Particulars: both partners purified. (In general: ITC needs no label: the signal is the heat of the interaction.)

As for B1, the binding result in test [1] and in test [2] was “binds” each time. In test [3], the “stoichiometry N” value was about 1 molar ratio.

On to B2, for which, in test [2], the binding result is on record as “binds”.

For the molecule B3, the Kd in test [4] was 16.6 µM. In test [5], the Kd worked out at 0.4 ± 0.05 µM, the dH is -4.52 ± 0.04 kcal/mol and the “stoichiometry N” value is 1.

Take B4: the Kd in test [5] was over 50 µM.

In test [5], B5 returned a Kd of 5 ± 0.3 µM.
